{"source": "paper PMC3541276", "key": {"[1]": {"target": "rabbit muscle G-actin (rabbit) (UniProt P68135)", "test": "ITC; 20°C; TbCof (0.15 mM, syringe) injected into ADP-G-actin (0.015 mM, cell); ADP-G-buffer: 10 mM Tris, 0.2 mM CaCl2, 0.2 mM ADP, 2.0 mM BME, pH 7.4 (low ionic strength); one-site model"}, "[2]": {"target": "rabbit muscle G-actin (rabbit) (UniProt P68135)", "test": "ITC; 20°C; TbCof (0.28 mM, syringe) injected into ATP-G-actin (0.028 mM, cell); ATP-G-buffer: 10 mM Tris, 0.2 mM CaCl2, 0.2 mM ATP, 2.0 mM BME, pH 7.4 (low ionic strength); one-site model"}}, "data": [{"substance": "ADF/cofilin from Trypanosoma brucei (TbCof), His6 tag cleaved with TEV protease (natural protein)", "values": [{"measurement": "Kd", "setting": "[1]", "result": 80, "unit": "nM"}, {"measurement": "dH", "setting": "[1]", "result": -9480, "unit": "cal/mol"}, {"measurement": "stoichiometry N", "setting": "[1]", "result": 1}, {"measurement": "Kd", "setting": "[2]", "result": 360, "unit": "nM"}, {"measurement": "dH", "setting": "[2]", "result": -3930, "unit": "cal/mol"}, {"measurement": "stoichiometry N", "setting": "[2]", "result": 1}]}]}
